Assay results as given in PMC10256215, “IFITM1 enhances nonenveloped viral RNA replication by facilitating cholesterol transport to the Golgi” (PLOS Pathogens, 2023).

Experiments:
Assay in all cases: two-hybrid; mammalian two-hybrid (Checkmate, Promega) in Vero cells; pACT and pBIND fusions in both orientations with the pG5luc reporter; firefly/Renilla luciferase at 48 h as fold of the control with empty pACT or pBIND
Settings in all cases: partners not purified
[1] = biological target: T1, OSBP (mammalian two-hybrid fusion) (UniProt P22059 1-807)
T1 construct: two-hybrid construct not described; Two-hybrid construct not described in the methods; source: Vero cells, transfected, mammalian two-hybrid fusion
T1 sequence (looked up): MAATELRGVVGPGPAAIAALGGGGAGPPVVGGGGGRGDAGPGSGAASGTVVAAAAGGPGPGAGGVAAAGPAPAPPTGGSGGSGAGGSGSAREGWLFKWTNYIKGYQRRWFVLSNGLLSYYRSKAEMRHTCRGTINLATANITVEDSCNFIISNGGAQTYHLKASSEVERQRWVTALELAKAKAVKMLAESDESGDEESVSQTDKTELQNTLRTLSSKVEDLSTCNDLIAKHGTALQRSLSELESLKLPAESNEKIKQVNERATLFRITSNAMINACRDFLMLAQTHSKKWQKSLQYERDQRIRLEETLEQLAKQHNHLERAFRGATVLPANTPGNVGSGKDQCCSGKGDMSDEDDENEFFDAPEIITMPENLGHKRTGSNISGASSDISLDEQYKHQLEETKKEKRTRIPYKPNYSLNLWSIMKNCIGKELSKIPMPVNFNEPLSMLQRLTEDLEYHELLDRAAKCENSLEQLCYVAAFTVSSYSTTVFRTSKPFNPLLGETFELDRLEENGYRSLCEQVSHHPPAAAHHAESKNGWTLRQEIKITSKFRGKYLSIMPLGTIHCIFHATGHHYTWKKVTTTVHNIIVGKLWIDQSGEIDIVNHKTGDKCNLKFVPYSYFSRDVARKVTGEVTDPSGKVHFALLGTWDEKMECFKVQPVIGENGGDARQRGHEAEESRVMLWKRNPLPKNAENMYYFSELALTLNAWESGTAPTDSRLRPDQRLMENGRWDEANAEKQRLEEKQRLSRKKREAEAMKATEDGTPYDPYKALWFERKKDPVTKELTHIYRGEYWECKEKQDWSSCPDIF

[2] = biological target: T2, PI4KB (mammalian two-hybrid fusion) (UniProt Q9UBF8 1-816)
T2 construct: PI4KB, Golgi protein; two-hybrid construct not described; Two-hybrid construct not described in the methods; also called phosphatidylinositol 4-kinase IIIβ; source: Vero cells, transfected, mammalian two-hybrid fusion

[3] = biological target: T3, ACBD3 (mammalian two-hybrid fusion) (UniProt Q9H3P7 1-528)
T3 construct: ACBD3, Golgi protein; two-hybrid construct not described; Two-hybrid construct not described in the methods; source: Vero cells, transfected, mammalian two-hybrid fusion
T3 sequence (looked up): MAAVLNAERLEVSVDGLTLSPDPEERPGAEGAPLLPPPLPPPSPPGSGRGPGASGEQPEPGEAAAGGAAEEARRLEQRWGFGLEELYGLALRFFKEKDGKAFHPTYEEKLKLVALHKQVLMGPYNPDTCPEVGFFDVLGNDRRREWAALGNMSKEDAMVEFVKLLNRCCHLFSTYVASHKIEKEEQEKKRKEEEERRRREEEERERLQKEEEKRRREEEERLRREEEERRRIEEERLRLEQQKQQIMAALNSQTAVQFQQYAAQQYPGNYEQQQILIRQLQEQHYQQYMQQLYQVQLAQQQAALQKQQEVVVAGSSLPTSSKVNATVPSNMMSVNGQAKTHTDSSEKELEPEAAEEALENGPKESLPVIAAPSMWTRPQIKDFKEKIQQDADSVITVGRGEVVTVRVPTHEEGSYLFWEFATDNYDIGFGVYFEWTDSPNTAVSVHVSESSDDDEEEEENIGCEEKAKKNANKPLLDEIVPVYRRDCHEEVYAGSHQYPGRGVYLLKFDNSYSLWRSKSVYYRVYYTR

T2 sequence (Q9UBF8 whole entry, the tested form may be a part): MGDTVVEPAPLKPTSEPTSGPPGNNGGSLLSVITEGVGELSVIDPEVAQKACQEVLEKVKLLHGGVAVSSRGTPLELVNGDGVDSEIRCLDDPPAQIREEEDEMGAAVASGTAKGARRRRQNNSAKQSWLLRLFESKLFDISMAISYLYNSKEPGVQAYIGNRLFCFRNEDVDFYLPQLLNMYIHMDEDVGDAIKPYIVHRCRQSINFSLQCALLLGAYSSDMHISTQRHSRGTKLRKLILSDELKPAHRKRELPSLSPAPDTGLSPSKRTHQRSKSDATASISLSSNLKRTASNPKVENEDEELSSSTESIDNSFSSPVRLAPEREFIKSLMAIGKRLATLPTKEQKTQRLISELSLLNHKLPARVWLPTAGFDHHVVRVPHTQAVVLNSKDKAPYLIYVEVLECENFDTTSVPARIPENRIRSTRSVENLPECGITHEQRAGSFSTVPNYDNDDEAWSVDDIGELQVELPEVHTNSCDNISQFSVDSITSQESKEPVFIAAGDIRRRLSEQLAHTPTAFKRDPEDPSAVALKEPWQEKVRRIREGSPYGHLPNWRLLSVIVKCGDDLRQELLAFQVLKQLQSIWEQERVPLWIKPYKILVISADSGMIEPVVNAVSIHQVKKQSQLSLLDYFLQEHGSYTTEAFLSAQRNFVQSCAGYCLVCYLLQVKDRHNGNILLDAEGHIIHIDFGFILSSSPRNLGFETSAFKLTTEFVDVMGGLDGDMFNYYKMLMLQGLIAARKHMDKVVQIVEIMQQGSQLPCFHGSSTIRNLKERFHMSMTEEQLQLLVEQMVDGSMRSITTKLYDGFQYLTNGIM

B1: IFITM1 (mammalian two-hybrid fusion) (natural protein, human, UniProt P13164 1-125, looked up)
chain: MHKEEHEVAVLGPPPSTILPRSTVINIHSETSVPDHVVWSLFNTLFLNWCCLGFIAFAYSVKSRDRKMVGDVTGAQAYASTAKCLNIWALILGILMTIGFILLLVFGSVTVYHIMLQIIQEKRGY
notes: IFITM1, human; coding region amplified by PCR from an OriGene cDNA clone; one fusion partner at a time; also called interferon-induced transmembrane protein 1; pACT-IFITM1; source: Vero cells, transfected, mammalian two-hybrid fusion
With B1 the “fold increase in luciferase activity” value [1] was 7.8 fold, the “fold increase in luciferase activity” value [2] was 8.2 fold and the “fold increase in luciferase activity” value [3] was 84.2 fold.
